Data published in the RNAGym collection of RNA variant scans (doi:10.1021/acssynbio.7b00057).

B1: Pistol ribozyme (parent)
chain: GGGUCGUUGUUCCAUAAUCGCGUGGAUAUGGCACGCAAGUUUCUACCGGGCACCGUAAAUGUCCGACUGGAGCCGUUCGGGCGGCUAUAAACAGACCUCAGGCCCGAAGCGUGGCGGCACCUGCCGCCGGUGGUAAAAAAGAUCGGAAGAGCACACGUCU

Variants of: B1
Test: aptazyme ON/OFF ratio, guanine; higher = stronger switching; co-transcriptional cleavage with and without guanine

Question: For GGGUCGAACCAUAAUAAUCGCGUGGAUAUGGCACGCAAGUUUCUACCGGGCACCGUAAAUGUCCGACUGGAGCCGUUCGGGCGGCUAUAAACAGACCUCAGGCCCGAAGCGUGGCGGCACCUGCCGCCGGUGGUAAAAAAGAUCGGAAGAGCACACGUCU [U7A U8A G9C U10C U11A C12U C13A], which “aptazyme ON/OFF ratio” value is on record?
Answer: 1.03

Question: For GGGUCGGAGCUGCAUAAUCGCGUGGAUAUGGCACGCAAGUUUCUACCGGGCACCGUAAAUGUCCGACUGGAGCCGUUCGGGCGGCUAUAAACAGACCUCAGGCCCGAAGCGUGGCGGCACCUGCCGCCGGUGGUAAAAAAGAUCGGAAGAGCACACGUCU [U7G U8A U10C C12G], which “aptazyme ON/OFF ratio” value is on record?
Answer: 1.46

Question: With GGGUCGCACUACGAUAAUCGCGUGGAUAUGGCACGCAAGUUUCUACCGGGCACCGUAAAUGUCCGACUGGAGCCGUUCGGGCGGCUAUAAACAGACCUCAGGCCCGAAGCGUGGCGGCACCUGCCGCCGGUGGUAAAAAAGAUCGGAAGAGCACACGUCU [U7C U8A G9C U11A C13G] as the variant, how does the “aptazyme ON/OFF ratio” value read?
Answer: 1.06

Question: With GGGUCGUCCGCAAAUAAUCGCGUGGAUAUGGCACGCAAGUUUCUACCGGGCACCGUAAAUGUCCGACUGGAGCCGUUCGGGCGGCUAUAAACAGACCUCAGGCCCGAAGCGUGGCGGCACCUGCCGCCGGUGGUAAAAAAGAUCGGAAGAGCACACGUCU [U8C G9C U10G U11C C12A C13A] as the variant, how does the “aptazyme ON/OFF ratio” value read?
Answer: 1.19

Question: Which “aptazyme ON/OFF ratio” value does the source give for GGGUCGACUUGGUAUAAUCGCGUGGAUAUGGCACGCAAGUUUCUACCGGGCACCGUAAAUGUCCGACUGGAGCCGUUCGGGCGGCUAUAAACAGACCUCAGGCCCGAAGCGUGGCGGCACCUGCCGCCGGUGGUAAAAAAGAUCGGAAGAGCACACGUCU [U7A U8C G9U U11G C12G C13U] here?
Answer: 1.07

Question: With GGGUCGGCGAAGUAUAAUCGCGUGGAUAUGGCACGCAAGUUUCUACCGGGCACCGUAAAUGUCCGACUGGAGCCGUUCGGGCGGCUAUAAACAGACCUCAGGCCCGAAGCGUGGCGGCACCUGCCGCCGGUGGUAAAAAAGAUCGGAAGAGCACACGUCU [U7G U8C U10A U11A C12G C13U] as the variant, how does the “aptazyme ON/OFF ratio” value read?
Answer: 1.26

Question: With GGGUCGUGUUAGAAUAAUCGCGUGGAUAUGGCACGCAAGUUUCUACCGGGCACCGUAAAUGUCCGACUGGAGCCGUUCGGGCGGCUAUAAACAGACCUCAGGCCCGAAGCGUGGCGGCACCUGCCGCCGGUGGUAAAAAAGAUCGGAAGAGCACACGUCU [U8G G9U U11A C12G C13A] as the variant, how does the “aptazyme ON/OFF ratio” value read?
Answer: 1.13

Question: For GGGUCGUCAUACGAUAAUCGCGUGGAUAUGGCACGCAAGUUUCUACCGGGCACCGUAAAUGUCCGACUGGAGCCGUUCGGGCGGCUAUAAACAGACCUCAGGCCCGAAGCGUGGCGGCACCUGCCGCCGGUGGUAAAAAAGAUCGGAAGAGCACACGUCU [U8C G9A U11A C13G], which “aptazyme ON/OFF ratio” value is on record?
Answer: 1.04

Question: Which “aptazyme ON/OFF ratio” value does the source give for GGGUCGCACCAUCAUAAUCGCGUGGAUAUGGCACGCAAGUUUCUACCGGGCACCGUAAAUGUCCGACUGGAGCCGUUCGGGCGGCUAUAAACAGACCUCAGGCCCGAAGCGUGGCGGCACCUGCCGCCGGUGGUAAAAAAGAUCGGAAGAGCACACGUCU [U7C U8A G9C U10C U11A C12U] here?
Answer: 1.06

Question: With GGGUCGUAAACCAAUAAUCGCGUGGAUAUGGCACGCAAGUUUCUACCGGGCACCGUAAAUGUCCGACUGGAGCCGUUCGGGCGGCUAUAAACAGACCUCAGGCCCGAAGCGUGGCGGCACCUGCCGCCGGUGGUAAAAAAGAUCGGAAGAGCACACGUCU [U8A G9A U10A U11C C13A] as the variant, how does the “aptazyme ON/OFF ratio” value read?
Answer: 1.04

Question: With GGGUCGUACUGAUAUAAUCGCGUGGAUAUGGCACGCAAGUUUCUACCGGGCACCGUAAAUGUCCGACUGGAGCCGUUCGGGCGGCUAUAAACAGACCUCAGGCCCGAAGCGUGGCGGCACCUGCCGCCGGUGGUAAAAAAGAUCGGAAGAGCACACGUCU [U8A G9C U11G C12A C13U] as the variant, how does the “aptazyme ON/OFF ratio” value read?
Answer: 1.2

Question: Which “aptazyme ON/OFF ratio” value does the source give for GGGUCGGCACGGGAUAAUCGCGUGGAUAUGGCACGCAAGUUUCUACCGGGCACCGUAAAUGUCCGACUGGAGCCGUUCGGGCGGCUAUAAACAGACCUCAGGCCCGAAGCGUGGCGGCACCUGCCGCCGGUGGUAAAAAAGAUCGGAAGAGCACACGUCU [U7G U8C G9A U10C U11G C12G C13G] here?
Answer: 1.08

Question: For GGGUCGAUAGAUAAUAAUCGCGUGGAUAUGGCACGCAAGUUUCUACCGGGCACCGUAAAUGUCCGACUGGAGCCGUUCGGGCGGCUAUAAACAGACCUCAGGCCCGAAGCGUGGCGGCACCUGCCGCCGGUGGUAAAAAAGAUCGGAAGAGCACACGUCU [U7A G9A U10G U11A C12U C13A], which “aptazyme ON/OFF ratio” value is on record?
Answer: 1.09

Question: Which “aptazyme ON/OFF ratio” value does the source give for GGGUCGAAGAUCUAUAAUCGCGUGGAUAUGGCACGCAAGUUUCUACCGGGCACCGUAAAUGUCCGACUGGAGCCGUUCGGGCGGCUAUAAACAGACCUCAGGCCCGAAGCGUGGCGGCACCUGCCGCCGGUGGUAAAAAAGAUCGGAAGAGCACACGUCU [U7A U8A U10A C13U] here?
Answer: 1.06

Question: Which “aptazyme ON/OFF ratio” value does the source give for GGGUCGACCGGCUAUAAUCGCGUGGAUAUGGCACGCAAGUUUCUACCGGGCACCGUAAAUGUCCGACUGGAGCCGUUCGGGCGGCUAUAAACAGACCUCAGGCCCGAAGCGUGGCGGCACCUGCCGCCGGUGGUAAAAAAGAUCGGAAGAGCACACGUCU [U7A U8C G9C U10G U11G C13U] here?
Answer: 1.09

Question: With GGGUCGGGACUACAUAAUCGCGUGGAUAUGGCACGCAAGUUUCUACCGGGCACCGUAAAUGUCCGACUGGAGCCGUUCGGGCGGCUAUAAACAGACCUCAGGCCCGAAGCGUGGCGGCACCUGCCGCCGGUGGUAAAAAAGAUCGGAAGAGCACACGUCU [U7G U8G G9A U10C C12A] as the variant, how does the “aptazyme ON/OFF ratio” value read?
Answer: 1.46

Question: With GGGUCGGGACAGGAUAAUCGCGUGGAUAUGGCACGCAAGUUUCUACCGGGCACCGUAAAUGUCCGACUGGAGCCGUUCGGGCGGCUAUAAACAGACCUCAGGCCCGAAGCGUGGCGGCACCUGCCGCCGGUGGUAAAAAAGAUCGGAAGAGCACACGUCU [U7G U8G G9A U10C U11A C12G C13G] as the variant, how does the “aptazyme ON/OFF ratio” value read?
Answer: 1.18

Question: For GGGUCGUCACGUGAUAAUCGCGUGGAUAUGGCACGCAAGUUUCUACCGGGCACCGUAAAUGUCCGACUGGAGCCGUUCGGGCGGCUAUAAACAGACCUCAGGCCCGAAGCGUGGCGGCACCUGCCGCCGGUGGUAAAAAAGAUCGGAAGAGCACACGUCU [U8C G9A U10C U11G C12U C13G], which “aptazyme ON/OFF ratio” value is on record?
Answer: 1.15
